For assay [1], the system named is GFP-14-3-3β and its binding proteins. In words: GFP-14-3-3β co-IP with LC-MS/MS label-free quantification, untreated versus PP1c-treated. The conditions noted are these: pairwise comparison PP1 vs untreated. Set-up: species or system human.
In a further assay the test system is GFP-14-3-3β. In words: GFP-14-3-3β co-IP with LC-MS/MS, untreated GFP-14-3-3β versus GFP control (14-3-3 interactome). It is filed as binding, human. The conditions noted are these: pairwise comparison untreated vs GFP.
Setting [2] is: log2 difference, label-free quantification, 3 replicates each.

B1: PLEKHA7 (protein, UniProt Q6IQ23 1-1121, looked up)
Pleckstrin homology …: MAAATVGRDTLPEHWSYGVCRDGRVFFINDQLRCTTWLHPRTGEPVNSGHMIRSDLPRGWEEGFTEEGASYFIDHNQQTTAFRHPVTGQFSPENSEFILQEEPNPHMSKQDRNQRPSSMVSETSTAGTASTLEAKPGPKIIKSSSKVHSFGKRDQAIRRNPNVPVVVRGWLHKQDSSGMRLWKRRWFVLADYCLFYYKDSREEAVLGSIPLPSYVISPVAPEDRISRKYSFKAVHTGMRALIYNSSTAGSQAEQSGMRTYYFSADTQEDMNAWVRAMNQAAQVLSRSSLKRDMEKVERQAVPQANHTESCHECGRVGPGHTRDCPHRGHDDIVNFERQEQEGEQYRSQRDPLEGKRDRSKARSPYSPAEEDALFMDLPTGPRGQQAQPQRAEKNGMLPASYGPGEQNGTGGYQRAFPPRTNPEKHSQRKSNLAQVEHWARAQKGDSRSLPLDQTLPRQGPGQSLSFPENYQTLPKSTRHPSGGSSPPPRNLPSDYKYAQDRASHLKMSSEERRAHRDGTVWQLYEWQQRQQFRHGSPTAPICLGSPEFTDQGRSRSMLEVPRSISVPPSPSDIPPPGPPRVFPPRRPHTPAERVTVKPPDQRRSVDISLGDSPRRARGHAVKNSSHVDRRSMPSMGYMTHTVSAPSLHGKSADDTYLQLKKDLEYLDLKMTGRDLLKDRSLKPVKIAESDTDVKLSIFCEQDRVLQDLEDKIRALKENKDQLESVLEVLHRQMEQYRDQPQHLEKIAYQQKLLQEDLVHIRAELSRESTEMENAWNEYLKLENDVEQLKQTLQEQHRRAFFFQEKSQIQKDLWRIEDVTAGLSANKENFRILVESVKNPERKTVPLFPHPPVPSLSTSESKPPPQPSPPTSPVRTPLEVRLFPQLQTYVPYRPHPPQLRKVTSPLQSPTKAKPKVEDEAPPRPPLPELYSPEDQPPAVPPLPREATIIRHTSVRGLKRQSDERKRDRELGQCVNGDSRVELRSYVSEPELATLSGDMAQPSLGLVGPESRYQTLPGRGLSGSTSRLQQSSTIAPYVTLRRGLNAESSKATFPRPKSALERLYSGDHQRGKMSAEEQLERMKRHQKALVRERKRTLGQGERTGLPSSRYLSRPLPGDLGSVC
With B1, the “Difference (log2), PP1 vs untreated” value in assay [1] was 0.2527 log2. For the same molecule, the “Difference (log2), untreated vs GFP” value in the assay with GFP-14-3-3β is given as 1.203 log2.

B2: LRRC59 (protein, UniProt Q96AG4 1-307, looked up)
Leucine-rich …: MTKAGSKGGNLRDKLDGNELDLSLSDLNEVPVKELAALPKATILDLSCNKLTTLPSDFCGLTHLVKLDLSKNKLQQLPADFGRLVNLQHLDLLNNKLVTLPVSFAQLKNLKWLDLKDNPLDPVLAKVAGDCLDEKQCKQCANKVLQHMKAVQADQERERQRRLEVEREAEKKREAKQRAKEAQERELRKREKAEEKERRRKEYDALKAAKREQEKKPKKEANQAPKSKSGSRPRKPPPRKHTRSWAVLKLLLLLLLFGVAGGLVACRVTELQQQPLCTSVNTIYDNAVQGLRRHEILQWVLQTDSQQ
B2: in assay [1], the “Difference (log2), PP1 vs untreated” value came to 0.2489 log2. For the same molecule, the “Difference (log2), untreated vs GFP” value in the assay on GFP-14-3-3β was 0.4854 log2.

B3: ACSL3 (protein, UniProt O95573 1-720, looked up)
Fatty acid CoA ligase Acsl3: MNNHVSSKPSTMKLKHTINPILLYFIHFLISLYTILTYIPFYFFSESRQEKSNRIKAKPVNSKPDSAYRSVNSLDGLASVLYPGCDTLDKVFTYAKNKFKNKRLLGTREVLNEEDEVQPNGKIFKKVILGQYNWLSYEDVFVRAFNFGNGLQMLGQKPKTNIAIFCETRAEWMIAAQACFMYNFQLVTLYATLGGPAIVHALNETEVTNIITSKELLQTKLKDIVSLVPRLRHIITVDGKPPTWSEFPKGIIVHTMAAVEALGAKASMENQPHSKPLPSDIAVIMYTSGSTGLPKGVMISHSNIIAGITGMAERIPELGEEDVYIGYLPLAHVLELSAELVCLSHGCRIGYSSPQTLADQSSKIKKGSKGDTSMLKPTLMAAVPEIMDRIYKNVMNKVSEMSSFQRNLFILAYNYKMEQISKGRNTPLCDSFVFRKVRSLLGGNIRLLLCGGAPLSATTQRFMNICFCCPVGQGYGLTESAGAGTISEVWDYNTGRVGAPLVCCEIKLKNWEEGGYFNTDKPHPRGEILIGGQSVTMGYYKNEAKTKADFFEDENGQRWLCTGDIGEFEPDGCLKIIDRKKDLVKLQAGEYVSLGKVEAALKNLPLVDNICAYANSYHSYVIGFVVPNQKELTELARKKGLKGTWEELCNSCEMENEVLKVLSEAAISASLEKFEIPVKIRLSPEPWTPETGLVTDAFKLKRKELKTHYQADIERMYGRK
On to B3, for which the “Difference (log2), PP1 vs untreated” value in assay [1] came out at 0.2597 log2. Also, in the assay on GFP-14-3-3β, the “Difference (log2), untreated vs GFP” value is 0.1591 log2.

B4: RARS (protein, UniProt P54136 1-660, looked up)
Arginine--tRNA ligase, …: MDVLVSECSARLLQQEEEIKSLTAEIDRLKNCGCLGASPNLEQLQEENLKLKYRLNILRKSLQAERNKPTKNMINIISRLQEVFGHAIKAAYPDLENPPLLVTPSQQAKFGDYQCNSAMGISQMLKTKEQKVNPREIAENITKHLPDNECIEKVEIAGPGFINVHLRKDFVSEQLTSLLVNGVQLPALGENKKVIVDFSSPNIAKEMHVGHLRSTIIGESISRLFEFAGYDVLRLNHVGDWGTQFGMLIAHLQDKFPDYLTVSPPIGDLQVFYKESKKRFDTEEEFKKRAYQCVVLLQGKNPDITKAWKLICDVSRQELNKIYDALDVSLIERGESFYQDRMNDIVKEFEDRGFVQVDDGRKIVFVPGCSIPLTIVKSDGGYTYDTSDLAAIKQRLFEEKADMIIYVVDNGQSVHFQTIFAAAQMIGWYDPKVTRVFHAGFGVVLGEDKKKFKTRSGETVRLMDLLGEGLKRSMDKLKEKERDKVLTAEELNAAQTSVAYGCIKYADLSHNRLNDYIFSFDKMLDDRGNTAAYLLYAFTRIRSIARLANIDEEMLQKAARETKILLDHEKEWKLGRCILRFPEILQKILDDLFLHTLCDYIYELATAFTEFYDSCYCVEKDRQTGKILKVNMWRMLLCEAVAAVMAKGFDILGIKPVQRM
As for B4, the “Difference (log2), PP1 vs untreated” value in assay [1] was found to be 0.2613 log2. Further, in the assay with GFP-14-3-3β, the “Difference (log2), untreated vs GFP” value is -0.5854 log2.

B5: ACADM (protein, UniProt P11310 26-421, looked up)
Medium-chain specific …: KANRQREPGLGFSFEFTEQQKEFQATARKFAREEIIPVAAEYDKTGEYPVPLIRRAWELGLMNTHIPENCGGLGLGTFDACLISEELAYGCTGVQTAIEGNSLGQMPIIIAGNDQQKKKYLGRMTEEPLMCAYCVTEPGAGSDVAGIKTKAEKKGDEYIINGQKMWITNGGKANWYFLLARSDPDPKAPANKAFTGFIVEADTPGIQIGRKELNMGQRCSDTRGIVFEDVKVPKENVLIGDGAGFKVAMGAFDKTRPVVAAGAVGLAQRALDEATKYALERKTFGKLLVEHQAISFMLAEMAMKVELARMSYQRAAWEVDSGRRNTYYASIAKAFAGDIANQLATDAVQILGGNGFNTEYPVEKLMRDAKIYQIYEGTSQIQRLIVAREHIDKYKN
In the case of B5, the “Difference (log2), PP1 vs untreated” value in assay [1] (setting [2]) is given as 2.074. Besides, the “Difference (log2), untreated vs GFP” value in the assay with GFP-14-3-3β (setting [2]) was -2.884.

B6: TMEM41B (protein, UniProt Q5BJD5 1-291, looked up)
Transmembrane protein 41B: MAKGRVAERSQLGAHHTTPVGDGAAGTRGLAAPGSRDHQKEKSWVEAGSARMSLLILVSIFLSAAFVMFLVYKNFPQLSEEERVNMKVPRDMDDAKALGKVLSKYKDTFYVQVLVAYFATYIFLQTFAIPGSIFLSILSGFLYPFPLALFLVCLCSGLGASFCYMLSYLVGRPVVYKYLTEKAVKWSQQVERHREHLINYIIFLRITPFLPNWFINITSPVINVPLKVFFIGTFLGVAPPSFVAIKAGTTLYQLTTAGEAVSWNSIFILMILAVLSILPAIFQKKLKQKFE
Turning to B6, the “Difference (log2), PP1 vs untreated” value in assay [1] came out at 0.218 log2. Moreover, the “Difference (log2), untreated vs GFP” value in the assay on GFP-14-3-3β came to 0.8349 log2.

B7: JUP (protein, UniProt P14923 1-745, looked up)
Junction plakoglobin: MEVMNLMEQPIKVTEWQQTYTYDSGIHSGANTCVPSVSSKGIMEEDEACGRQYTLKKTTTYTQGVPPSQGDLEYQMSTTARAKRVREAMCPGVSGEDSSLLLATQVEGQATNLQRLAEPSQLLKSAIVHLINYQDDAELATRALPELTKLLNDEDPVVVTKAAMIVNQLSKKEASRRALMGSPQLVAAVVRTMQNTSDLDTARCTTSILHNLSHHREGLLAIFKSGGIPALVRMLSSPVESVLFYAITTLHNLLLYQEGAKMAVRLADGLQKMVPLLNKNNPKFLAITTDCLQLLAYGNQESKLIILANGGPQALVQIMRNYSYEKLLWTTSRVLKVLSVCPSNKPAIVEAGGMQALGKHLTSNSPRLVQNCLWTLRNLSDVATKQEGLESVLKILVNQLSVDDVNVLTCATGTLSNLTCNNSKNKTLVTQNSGVEALIHAILRAGDKDDITEPAVCALRHLTSRHPEAEMAQNSVRLNYGIPAIVKLLNQPNQWPLVKATIGLIRNLALCPANHAPLQEAAVIPRLVQLLVKAHQDAQRHVAAGTQQPYTDGVRMEEIVEGCTGALHILARDPMNRMEIFRLNTIPLFVQLLYSSVENIQRVAAGVLCELAQDKEAADAIDAEGASAPLMELLHSRNEGTATYAAAVLFRISEDKNPDYRKRVSVELTNSLFKHDPAAWEAAQSMIPINEPYGDDMDATYRPMYSSDVPLDPLEMHMDMDGDYPIDTYSDGLRPPYPTADHMLA
As for B7, the “Difference (log2), PP1 vs untreated” value in assay [1] stood at 0.2305 log2. Further, the “Difference (log2), untreated vs GFP” value with GFP-14-3-3β is reported as -0.9623 log2.

B8: ATP5O (protein, UniProt P48047 24-213, looked up)
ATP synthase peripheral stalk …: FAKLVRPPVQVYGIEGRYATALYSAASKQNKLEQVEKELLRVAQILKEPKVAASVLNPYVKRSIKVKSLNDITAKERFSPLTTNLINLLAENGRLSNTQGVVSAFSTMMSVHRGEVPCTVTSASPLEEATLSELKTVLKSFLSQGQVLKLEAKTDPSILGGMIVRIGEKYVDMSVKTKIQKLGRAMREIV
With B8, the “Difference (log2), PP1 vs untreated” value in assay [1] came to 0.2696 log2. In addition, in the assay on GFP-14-3-3β, the “Difference (log2), untreated vs GFP” value is listed as 0.8888 log2.
